{
  "source": "patent US20230265211A1",
  "about": "(published 2023)",
  "key": {"[1]": {"target": "T1, recombinant human PS (rhPS) (human, UniProt P07225 42-676)", "T1 sequence (looked up)": "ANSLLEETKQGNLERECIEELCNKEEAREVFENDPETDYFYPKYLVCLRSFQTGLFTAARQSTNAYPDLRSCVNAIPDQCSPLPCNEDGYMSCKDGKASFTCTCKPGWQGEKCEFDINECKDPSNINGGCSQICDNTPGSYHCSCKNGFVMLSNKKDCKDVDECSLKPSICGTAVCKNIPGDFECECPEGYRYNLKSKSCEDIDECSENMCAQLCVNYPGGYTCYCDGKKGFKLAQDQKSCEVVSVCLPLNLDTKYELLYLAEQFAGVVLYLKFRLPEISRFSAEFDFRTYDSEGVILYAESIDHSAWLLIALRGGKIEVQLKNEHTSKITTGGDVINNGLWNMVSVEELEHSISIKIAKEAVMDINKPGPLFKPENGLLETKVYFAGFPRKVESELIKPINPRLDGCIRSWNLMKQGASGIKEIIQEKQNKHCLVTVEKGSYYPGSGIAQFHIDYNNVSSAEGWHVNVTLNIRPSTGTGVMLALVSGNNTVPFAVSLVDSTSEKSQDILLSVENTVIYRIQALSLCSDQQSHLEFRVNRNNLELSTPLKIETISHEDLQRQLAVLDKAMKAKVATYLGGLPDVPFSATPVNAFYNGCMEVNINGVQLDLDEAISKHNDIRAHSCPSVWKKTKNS", "test": "cell-based or functional assay"}, "[2]": {"target": "T2, recombinant human Gas6 (rhGas6) (human, UniProt Q14393 49-678, limits assumed)", "T2 sequence (looked up)": "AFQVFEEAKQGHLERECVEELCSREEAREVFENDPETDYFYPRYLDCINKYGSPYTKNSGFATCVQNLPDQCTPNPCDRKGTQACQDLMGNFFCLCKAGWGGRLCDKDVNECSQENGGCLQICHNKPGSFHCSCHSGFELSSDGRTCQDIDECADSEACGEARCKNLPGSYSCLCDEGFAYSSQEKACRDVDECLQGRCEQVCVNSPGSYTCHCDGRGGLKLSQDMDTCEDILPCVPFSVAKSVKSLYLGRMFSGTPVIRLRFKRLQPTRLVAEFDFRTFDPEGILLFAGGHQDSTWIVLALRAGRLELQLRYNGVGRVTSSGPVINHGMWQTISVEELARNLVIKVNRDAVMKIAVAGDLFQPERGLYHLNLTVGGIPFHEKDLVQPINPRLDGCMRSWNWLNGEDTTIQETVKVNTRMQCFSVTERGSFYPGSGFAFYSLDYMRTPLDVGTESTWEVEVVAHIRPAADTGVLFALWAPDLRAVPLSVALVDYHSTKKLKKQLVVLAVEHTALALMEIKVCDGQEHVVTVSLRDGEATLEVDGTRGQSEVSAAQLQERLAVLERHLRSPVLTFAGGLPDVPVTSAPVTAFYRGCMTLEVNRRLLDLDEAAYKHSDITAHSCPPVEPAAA", "test": "direct ELISA on immobilized protein, anti-HA detection", "method": "Vitamin K-dependent Gas6 is highly homologous to PS (47% overall homology) and, in contrast to other vitamin K-dependent proteins, also contains a SHBG-like domain. To further confirm the specificity of PS003 to PS, rhPS and rh Gas6 (60 μL, at 10 μg/mL in TBS containing 5 mM CaCl₂) were immobilized onto 96-well NUNC Maxisorp plates for 16 h at 4° C. Wells were washed with 3×200 μL of washing buffer (TBS containing 5 mM CaCl₂ and 0.1% Tween-20) and wells were blocked for 1 h at room temperature in TBS containing 5 mM CaCl₂ and 5% BSA. Wells were washed with 3×200 μL of washing buffer and increasing concentrations of PS003 (0-200 nM in TBS containing 5 mM CaCl₂ and 1% BSA, 50 μL/well) was incubated for 1 h at room temperature. Wells were washed with 3×200 μL of washing buffer, and a peroxidase-conjugated polyclonal anti-HA tag antibody (Abcam, 1 μg/mL in TBS containing 5 mM CaCl₂ and 1% BSA, 50 μL/well) was incubated for 1 h at room temperature. Wells were washed with 3×200 μL of washing buffer and 50 μL of TMB was added. Reactions were stopped by the addition of 50 μL of 2M H₂SO₄."}, "[3]": {"target": "T1, recombinant human PS (rhPS)", "test": "ELISA on rhPS immobilized at 0.6, 1.25, 2.5 and 5 µg/mL, method of Beatty et al. 1987", "method": "FIG. 6: Comparison of PS003 and PS003biv binding to immobilized PS in direct ELISA. rhPS (60 μL at 2.5 μg/mL in TBS containing 5 mM CaCl₂)) was immobilized onto ELISA wells, and the binding of PS003 and PS003biv (0-200 nM) was analyzed with a peroxidase-conjugated polyclonal anti-His6 tag antibody. Three individual experiments were done in simplicate, and the results are expressed as percentage of maximal binding for each nanobody. […] To further compare the ability of PS003 and PS003biv to bind to PS, the affinity of PS003 and PS003biv for rhPS was estimated as described (Beatty et al. J Immunol Methods 1987), by obtaining similar binding curves on rhPS immobilized at increasing concentrations (0.6, 1.25, 2.5 and 5 μg/mL in TBS containing 5 mM CaCl₂) in three individual experiments done in simplicate. For each nanobody, the dissociation constant (KD) was determined by using a formula based on the Law of Mass Action.\nTo further compare the ability of PS003 and PS003biv to bind to PS, the affinity of PS003 and PS003biv for rhPS was estimated as described (Beatty et al. J Immunol Methods 1987), by obtaining binding curves on rhPS immobilized at increasing concentrations (0.6, 1.25, 2.5 and 5 μg/mL in TBS containing 5 mM CaCl₂) in three individual experiments done in simplicate. […]"}, "[4]": {"target": "T2, recombinant human Gas6 (rhGas6)", "test": "direct ELISA on immobilized rhGas6, anti-His6 detection", "method": "FIG. 7: Epitope mapping of PS003biv and specificity of PS003biv for PS. Recombinant human PS (rhPS), a recombinant form of the PS SHBG-like region alone (rSHBG)), recombinant human Gas6 (rhGas6), or BSA (60 μL at 10 μg/mL in TBS containing 5 mM CaCl₂) were immobilized onto ELISA wells, and the binding of PS003biv (0.5 nM in TBS-0.1% Tween-5 mM CaCl₂)) was analyzed using a peroxidase-conjugated polyclonal anti-His6 tag antibody. The results are expressed as the percentage of the Abs_{450 nm} obtained on rhPS. Three individual experiments were done in simplicate.\nEpitope mapping of PS003biv and specificity of PS003biv for PS rhPS, a recombinant form of the PS SHBG-like region alone (rSHBG) (Saposnik et al. 2003), recombinant human Gas6 (rhGas6), or BSA (60 μL at 10 μg/mL in 50 mM Tris, 150 mM NaCl, pH 7.4 (TBS) containing 5 mM CaCl₂) were immobilized onto 96-well NUNC Maxisorp plates, for 16 h at 4° C. Wells were washed with 3×200 μL of washing buffer (TBS containing 5 mM CaCl₂ and 0.1% Tween-20) and wells were blocked for 1 h at room temperature with TBS containing 5 mM CaCl₂ and 5% BSA. Wells were washed with 3×200 μL of washing buffer and 0.5 nM PS003biv (in TBS containing 5 mM CaCl₂, 0.1% Tween-20 and 2% BSA, 50 μL/well) were incubated for 1 h at room temperature. […] The results are expressed as the percentage of the Abs_{450 nm} obtained on rhPS. […]"}, "[5]": {"target": "T3, recombinant murine PS (rmPS) (murine, UniProt Q08761 42-675)", "T3 construct": "also called recombinant murine protein S", "T3 sequence (looked up)": "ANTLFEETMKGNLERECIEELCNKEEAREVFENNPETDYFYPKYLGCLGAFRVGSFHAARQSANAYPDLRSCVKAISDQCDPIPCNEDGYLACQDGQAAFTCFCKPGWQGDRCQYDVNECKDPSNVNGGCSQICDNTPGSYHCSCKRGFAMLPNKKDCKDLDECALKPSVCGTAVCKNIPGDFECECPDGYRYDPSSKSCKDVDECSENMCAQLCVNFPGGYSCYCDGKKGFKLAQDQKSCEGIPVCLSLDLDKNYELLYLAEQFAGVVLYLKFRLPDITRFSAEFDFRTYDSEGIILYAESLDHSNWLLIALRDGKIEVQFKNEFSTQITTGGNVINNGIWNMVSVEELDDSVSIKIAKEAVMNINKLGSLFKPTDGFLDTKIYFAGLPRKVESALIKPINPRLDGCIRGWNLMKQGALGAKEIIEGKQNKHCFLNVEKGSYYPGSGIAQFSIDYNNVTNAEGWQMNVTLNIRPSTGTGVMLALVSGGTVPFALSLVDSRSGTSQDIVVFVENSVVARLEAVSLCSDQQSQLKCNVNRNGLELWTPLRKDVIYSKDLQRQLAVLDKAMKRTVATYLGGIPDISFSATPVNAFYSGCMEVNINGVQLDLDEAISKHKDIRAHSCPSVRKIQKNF", "test": "direct ELISA on immobilized rmPS (legend of FIG. 11)", "description": "FIG. 11: Comparison of PS003biv and PS004biv binding to immobilized recombinant murine PS in direct ELISA. PS004biv is an in-house anti-human PS nanobody generated from a monovalent nanobody (PS004) identified after a selection on rhPS immobilized onto ELISA wells. PS004biv strongly binds to rhPS in direct ELISA but, in contrast to PS003biv, its epitope is localized within the N-terminal part of PS and not within the SHBG-like domain of PS (data not shown). The binding of PS003biv and PS004biv to immobilized rmPS was analyzed by ELISA.\nAs for rhPS, recombinant murine PS (rmPS) was expressed in HEK293 cells in the presence of 10 μg/mL vitamin K1, and purified by a two-step anion-exchange chromatography, as previously described (Fernandez et al. 2009). rmPS (60 μL at 10 μg/mL in TBS containing 5 mM CaCl₂) was immobilized onto 96-well NUNC Maxisorp plates, for 16 h at 4° C. Wells were washed with 3×200 μL of washing buffer (TBS containing 5 mM CaCl₂) and 0.1% Tween-20) and wells were blocked for 1 h at room temperature with TBS containing 5 mM CaCl₂ and 5% BSA. Wells were washed with 3×200 μL of washing buffer and increasing concentrations of PS003biv and PS004biv (0-50 nM in TBS containing 5 mM CaCl₂ and 1% BSA, 50 μL/well) were incubated for 1 h at room temperature. […]"}, "[6]": {"target": "T1, recombinant human PS (rhPS)", "test": "ratio of ELISA-derived KD values, reference PS003", "method": "To further compare the ability of PS003 and PS003biv to bind to PS, the affinity of PS003 and PS003biv for rhPS was estimated as described (Beatty et al. J Immunol Methods 1987), by obtaining binding curves on rhPS immobilized at increasing concentrations (0.6, 1.25, 2.5 and 5 μg/mL in TBS containing 5 mM CaCl₂) in three individual experiments done in simplicate. For each nanobody, the dissociation constant (KD) was determined by using a formula based on the Law of Mass Action."}},
  "data": [
    {"binder": "PS003 (VHH, Llama VHH selected by phage display on rhPS; Purified form expressed from pET28 in E. coli with N-terminal His6-tag and C-terminal HA-tag; also called PS003 nanobody; monovalent PS003; not shown: N-terminal His6-tag from the pET28 format; C-terminal haemagglutinin (HA)-tag) VHH: QVQLQESGGGLVQAGGSLRLSCAASGRTFSSYAMGWVRQAPGKEREFVAAISYNGGRTNYADSVKGRFTISRDNAKNTGYLQMNSLKPEDTAVYYCAANPRMWGSVDFRSWGQGTQVTVSS", "values": [
      {"measurement": "clotting times in APTT-based APC-cofactor activity plasma clotting assay (STACLOT PS); 6 nM rhPS, 2 µM nanobody", "setting": "[1]", "result": 2.8, "unit": "fold"},
      {"measurement": "binding result", "setting": "[2]", "result": "no binding (tested: 20 nM)"},
      {"measurement": "Kd", "setting": "[3]", "result": 26.8, "unit": "nM"}
    ]},
    {"binder": "PS003biv (VHH, also called bivalent PS003; not shown: N-terminal His6-tag from the pET28 format; C-terminal haemagglutinin (HA)-tag) QVQLQESGGGLVQAGGSLRLSCAASGRTFSSYAMGWVRQAPGKEREFVAAISYNGGRTNYADSVKGRFTISRDNAKNTGYLQMNSLKPEDTAVYYCAANPRMWGSVDFRSWGQGTQVTVSSGGGSGGGSGGGSGGGSQVQLQESGGGLVQAGGSLRLSCAASGRTFSSYAMGWVRQAPGKEREFVAAISYNGGRTNYADSVKGRFTISRDNAKNTGYLQMNSLKPEDTAVYYCAANPRMWGSVDFRSWGQGTQVTVSS", "values": [
      {"measurement": "binding result", "setting": "[4]", "result": "no binding (tested: 0.5 nM)"},
      {"measurement": "clotting times in APTT-based APC-cofactor activity plasma clotting assay (STACLOT PS); 6 nM rhPS, 2 µM nanobody", "setting": "[1]", "result": 3.6, "unit": "fold"},
      {"measurement": "binding result", "setting": "[5]", "result": "binds"},
      {"measurement": "fold higher affinity than PS003", "setting": "[6]", "result": 1.9, "unit": "fold"},
      {"measurement": "Kd", "setting": "[3]", "result": 13.8, "unit": "nM"}
    ]}
  ]
}
